From patent US20250340631A1

How the values were obtained:
[1] = molecular target: Biotinylated murine CD3E&D (murine) (UniProt P22646); assay: BLI (Octet), biotinylated CD3 on SA sensor, 1:1 global fit
human CLDN18.2 (human) [2] = assay: competition FACS on HEK293/hCLDN18.2 cells; competitor 10 nM biotinylated PR000400; isotype is the reference of the formula
human CLDN18.2 (human) [3] = assay: competition FACS on HEK293/hCLDN18.2 cells; competitor 200 nM biotinylated PR004549; isotype is the reference of the formula

Biotinylated murine CD3E&D (murine), sequence (P22646 22-108, chain 1 of 2): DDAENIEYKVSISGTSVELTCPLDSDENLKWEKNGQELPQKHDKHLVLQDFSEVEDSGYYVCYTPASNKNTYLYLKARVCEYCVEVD
Biotinylated murine CD3E&D (murine), sequence (P04235 22-105, chain 2 of 2, further chain): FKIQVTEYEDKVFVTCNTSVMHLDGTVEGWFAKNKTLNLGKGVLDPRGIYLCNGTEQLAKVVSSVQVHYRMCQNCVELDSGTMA

Row | Kd [1] | koff [1] | kon [1] | Maximum inhibition rate (%) (human CLDN18.2 (human) [2]) | Maximum inhibition rate (%) (human CLDN18.2 (human) [3]) | Substance
1 | 0.171 nM | 0.000137 s⁻¹ | 803000 M⁻¹ s⁻¹ | – | – | anti-CD3e 48-2B (santa cruz biotechnology, SC-1174) (antibody)
2 | – | – | – | 0% | 0% | Iso hIgG1 (CrownBio, C0001-4) (antibody)
